# According to patent publication US20240066131A1 (Protagonist Therapeutics, Inc., priority 2020, published 2024):
# Starred links: 1 amine or outer side, 2 acyl side, 3 side chain; linkers in the order of their positions; H or OH if unused. Non-standard residues stand in square brackets, D forms with d. Groups on a side chain read outwards from the residue. Primed or numbered codes have the meaning given here. No end group written: not given here. *: point of attachment. N‑(CH2CH2C(Ph)2H)Gly = N-substituted glycine carrying a 3,3-diphenylpropyl group, O=C(CN(CCC(c1ccccc1)c1ccccc1)[*:1])[*:2]; C18 diacid = O=C(O)CCCCCCCCCCCCCCCCC(=O)*; Dip = N[C@H](C(=O)O)C(c1ccccc1)c1ccccc1; γGlu = O=C(O)[C@H](CCC(=O)[*:2])N[*:1]; N(isopentyl)Gly′ = not defined here; Palmitoyl = CCCCCCCCCCCCCCCC(=O)*; β3hF = N[C@H](CC(=O)O)Cc1ccccc1; PEG4 = NCCOCCOCCOCCOCCC(=O)O; Isovaleryl = CC(C)CC(=O)*; AEEA = NCCOCCOCC(=O)O; Ahx = NCCCCCC(=O)O; NHPr = CCCN*
# T1: human ferroportin (SLC40A1) fused in frame with GFP, stably expressed in HEK293 cells (human, UniProt Q9NP59 1-571)
# T1 sequence (looked up): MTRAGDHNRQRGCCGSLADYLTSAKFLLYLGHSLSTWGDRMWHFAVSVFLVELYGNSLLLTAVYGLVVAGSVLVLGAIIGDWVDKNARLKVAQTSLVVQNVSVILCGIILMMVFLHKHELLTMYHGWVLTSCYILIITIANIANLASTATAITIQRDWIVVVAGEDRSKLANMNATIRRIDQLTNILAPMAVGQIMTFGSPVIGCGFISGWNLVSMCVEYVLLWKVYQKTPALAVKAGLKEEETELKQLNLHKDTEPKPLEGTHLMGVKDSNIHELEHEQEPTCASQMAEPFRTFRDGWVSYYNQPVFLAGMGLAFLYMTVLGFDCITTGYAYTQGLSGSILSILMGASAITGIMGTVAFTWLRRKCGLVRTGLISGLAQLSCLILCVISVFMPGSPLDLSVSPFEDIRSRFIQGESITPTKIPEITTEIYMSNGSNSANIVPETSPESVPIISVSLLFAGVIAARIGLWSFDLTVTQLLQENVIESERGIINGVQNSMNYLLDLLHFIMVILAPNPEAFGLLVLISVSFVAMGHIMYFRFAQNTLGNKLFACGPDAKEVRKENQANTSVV
# Biological target: T1, human ferroportin (SLC40A1) fused in …
# Test: cell-based or functional assay
row,Binder,FPN IC50 [nM]
1,Isovaleryl-K([Ahx-Palmitoyl])TH[Dip]PAI[dK][β3hF]-NH2 (SMILES CCCCCCCCCCCCCCCC(=O)NCCCCCC(=O)NCCCC[C@H](NC(=O)CC(C)C)C(=O)N[C@H](C(=O)N[C@@H](Cc1c[nH]cn1)C(=O)N[C@H](C(=O)N1CCC[C@H]1C(=O)N[C@@H](C)C(=O)N[C@H](C(=O)N[C@H](CCCCN)C(=O)N[C@H](CC(N)=O)Cc1ccccc1)[C@@H](C)CC)C(c1ccccc1)c1ccccc1)[C@@H](C)O) [Isovaleric Acid-[Lys(Ahx_Palm)]-T-H-[Dpa]-P-A-I-[(D)Lys]-[bhPhe]-NH2; 2],654
2,Isovaleryl-LTH[Dip]PLIK([Ahx-Palmitoyl])[β3hF]-NH2 (SMILES CCCCCCCCCCCCCCCC(=O)NCCCCCC(=O)NCCCC[C@H](NC(=O)[C@@H](NC(=O)[C@H](CC(C)C)NC(=O)[C@@H]1CCCN1C(=O)[C@@H](NC(=O)[C@H](Cc1c[nH]cn1)NC(=O)[C@@H](NC(=O)[C@H](CC(C)C)NC(=O)CC(C)C)[C@@H](C)O)C(c1ccccc1)c1ccccc1)[C@@H](C)CC)C(=O)N[C@H](CC(N)=O)Cc1ccccc1) [Isovaleric Acid-L-T-H-[Dpa]-P-L-I-[Lys(Ahx_Palm)]-[bhPhe]-NH2],1270
3,Isovaleryl-LTH[Dip]PAIK([Ahx-Palmitoyl])[β3hF]-NH2 (SMILES CCCCCCCCCCCCCCCC(=O)NCCCCCC(=O)NCCCC[C@H](NC(=O)[C@@H](NC(=O)[C@H](C)NC(=O)[C@@H]1CCCN1C(=O)[C@@H](NC(=O)[C@H](Cc1c[nH]cn1)NC(=O)[C@@H](NC(=O)[C@H](CC(C)C)NC(=O)CC(C)C)[C@@H](C)O)C(c1ccccc1)c1ccccc1)[C@@H](C)CC)C(=O)N[C@H](CC(N)=O)Cc1ccccc1) [Isovaleric Acid-L-T-H-[Dpa]-P-A-I-[Lys(Ahx_Palm)]-[bhPhe]-NH2],1580
4,Isovaleryl-LTH[Dip]PAIK([Ahx-Palmitoyl])L-NH2 (SMILES CCCCCCCCCCCCCCCC(=O)NCCCCCC(=O)NCCCC[C@H](NC(=O)[C@@H](NC(=O)[C@H](C)NC(=O)[C@@H]1CCCN1C(=O)[C@@H](NC(=O)[C@H](Cc1c[nH]cn1)NC(=O)[C@@H](NC(=O)[C@H](CC(C)C)NC(=O)CC(C)C)[C@@H](C)O)C(c1ccccc1)c1ccccc1)[C@@H](C)CC)C(=O)N[C@@H](CC(C)C)C(N)=O) [Isovaleric Acid-L-T-H-[Dpa]-P-A-I-[Lys(Ahx_Palm)]-L-NH2],169
5,Isovaleryl-LTH[Dip]P[dK]([AEEA-AEEA-γGlu-C18 diacid])[β3hF]-NH2 (SMILES CC(C)CC(=O)N[C@@H](CC(C)C)C(=O)N[C@H](C(=O)N[C@@H](Cc1c[nH]cn1)C(=O)N[C@H](C(=O)N1CCC[C@H]1C(=O)N[C@H](CCCCNC(=O)COCCOCCNC(=O)COCCOCCNC(=O)CC[C@H](NC(=O)CCCCCCCCCCCCCCCCC(=O)O)C(=O)O)C(=O)N[C@H](CC(N)=O)Cc1ccccc1)C(c1ccccc1)c1ccccc1)[C@@H](C)O) [Isovaleric Acid-L-T-H-[Dpa]-P-d[Lys(1PEG2_1PEG2_IsoGlu_C18_Diacid)]-[bhPhe]-NH2],394
6,XETHXPXX (N-term Isovaleric Acid; Dpa4; Lys(1PEG2_1PEG2_Ahx_C18_Diacid)6; bhPhe7; C-term NH2) [Isovaleric Acid-E-T-H-[Dpa]-P-[Lys(1PEG2_1PEG2_Ahx_C18_Diacid)]-[bhPhe]-NH2],367
7,XETHXPXX (N-term Isovaleric Acid; Dpa4; d[Lys(1PEG2_1PEG2_IsoGlu_C18_Diacid)]6; bhPhe7; C-term NH2) [Isovaleric Acid-E-T-H-[Dpa]-P-d[Lys(1PEG2_1PEG2_IsoGlu_C18_Diacid)]-[bhPhe]-NH2],1490
8,XETHXPXX (N-term Isovaleric Acid; Dpa4; Lys(1PEG2_1PEG2_IsoGlu_C18_Diacid)6; C-term N_Butyl_Phe) [Isovaleric Acid-E-T-H-[Dpa]-P-[Lys(1PEG2_1PEG2_IsoGlu_C18_Diacid)]-N_Butyl_Phe],448
9,Isovaleryl-LTH[Dip]PLIK([Ahx-Palmitoyl])L-NH2 (SMILES CCCCCCCCCCCCCCCC(=O)NCCCCCC(=O)NCCCC[C@H](NC(=O)[C@@H](NC(=O)[C@H](CC(C)C)NC(=O)[C@@H]1CCCN1C(=O)[C@@H](NC(=O)[C@H](Cc1c[nH]cn1)NC(=O)[C@@H](NC(=O)[C@H](CC(C)C)NC(=O)CC(C)C)[C@@H](C)O)C(c1ccccc1)c1ccccc1)[C@@H](C)CC)C(=O)N[C@@H](CC(C)C)C(N)=O) [Isovaleric Acid-L-T-H-[Dpa]-P-L-I-[Lys(Ahx_Palm)]-L-NH2],342
10,XETHXPXX (N-term Isovaleric Acid; Dpa4; Lys(1PEG2_1PEG2_IsoGlu_C18_Diacid)6; bhPhe7; C-term NH2) [Isovaleric Acid-E-T-H-[Dpa]-P-[Lys(1PEG2_1PEG2_IsoGlu_C18_Diacid)]-[bhPhe]-NH2],1690
11,Ac-K([Ahx-Palmitoyl])TH[Dip]PAI[dK][β3hF]-NH2 (SMILES CCCCCCCCCCCCCCCC(=O)NCCCCCC(=O)NCCCC[C@H](NC(C)=O)C(=O)N[C@H](C(=O)N[C@@H](Cc1c[nH]cn1)C(=O)N[C@H](C(=O)N1CCC[C@H]1C(=O)N[C@@H](C)C(=O)N[C@H](C(=O)N[C@H](CCCCN)C(=O)N[C@H](CC(N)=O)Cc1ccccc1)[C@@H](C)CC)C(c1ccccc1)c1ccccc1)[C@@H](C)O) [Ac-[Lys(Ahx_Palm)]-T-H-[Dpa]-P-A-I-[(D)Lys]-[bhPhe]-NH2],> 3000
12,Isovaleryl-ETH[Dip]PAIK([Ahx-Palmitoyl])L-NH2 (SMILES CCCCCCCCCCCCCCCC(=O)NCCCCCC(=O)NCCCC[C@H](NC(=O)[C@@H](NC(=O)[C@H](C)NC(=O)[C@@H]1CCCN1C(=O)[C@@H](NC(=O)[C@H](Cc1c[nH]cn1)NC(=O)[C@@H](NC(=O)[C@H](CCC(=O)O)NC(=O)CC(C)C)[C@@H](C)O)C(c1ccccc1)c1ccccc1)[C@@H](C)CC)C(=O)N[C@@H](CC(C)C)C(N)=O) [Isovaleric Acid-E-T-H-[Dpa]-P-A-I-[Lys(Ahx_Palm)]-L-NH2],82
13,Isovaleryl-LTH[Dip]PK([Ahx-Palmitoyl])-NHPr [Isovaleric Acid-L-T-H-[Dpa]-P-[Lys(Ahx_Palm)]-Propyl_Amine],87.3
14,XETHXPXX (N-term Isovaleric Acid; Dpa4; Lys(1PEG2_1PEG2_IsoGlu_C18_Diacid)6; C-term N_Ethyl_Phe) [Isovaleric Acid-E-T-H-[Dpa]-P-[Lys(1PEG2_1PEG2_IsoGlu_C18_Diacid)]-N_Ethyl_Phe],408
15,XETHXPXX (not fully specified; N-term Isovaleric Acid; Dpa4; d[Lys(1PEG2_1PEG2_Ahx_C18_Diacid)]6; bhPhe7; C-term NH2) [Isovaleric Acid-E-T-H-[Dpa]-P-d[Lys(1PEG2_1PEG2_Ahx_C18_Diacid)]-[bhPhe]-NH2],86.8
16,XETHXPXX (N-term Isovaleric Acid; Dpa4; Lys(1PEG2_1PEG2_IsoGlu_C18_Diacid)6; C-term Propyl_Amine) [Isovaleric Acid-E-T-H-[Dpa]-P-[Lys(1PEG2_1PEG2_IsoGlu_C18_Diacid)]-Propyl_Amine],470
17,Isovaleryl-LTH[Dip]PK([AEEA-AEEA-γGlu-C18 diacid])[β3hF]-NH2 (SMILES CC(C)CC(=O)N[C@@H](CC(C)C)C(=O)N[C@H](C(=O)N[C@@H](Cc1c[nH]cn1)C(=O)N[C@H](C(=O)N1CCC[C@H]1C(=O)N[C@@H](CCCCNC(=O)COCCOCCNC(=O)COCCOCCNC(=O)CC[C@H](NC(=O)CCCCCCCCCCCCCCCCC(=O)O)C(=O)O)C(=O)N[C@H](CC(N)=O)Cc1ccccc1)C(c1ccccc1)c1ccccc1)[C@@H](C)O) [Isovaleric Acid-L-T-H-[Dpa]-P-[Lys(1PEG2_1PEG2_IsoGlu_C18_Diacid)]-[bhPhe]-NH2],482
18,Isovaleryl-K([Ahx-Palmitoyl])TH[Dip]PAI[dK][β3hF]-NH2 (SMILES CCCCCCCCCCCCCCCC(=O)NCCCCCC(=O)NCCCC[C@H](NC(=O)CC(C)C)C(=O)N[C@H](C(=O)N[C@@H](Cc1c[nH]cn1)C(=O)N[C@H](C(=O)N1CCC[C@H]1C(=O)N[C@@H](C)C(=O)N[C@H](C(=O)N[C@H](CCCCN)C(=O)N[C@H](CC(N)=O)Cc1ccccc1)[C@@H](C)CC)C(c1ccccc1)c1ccccc1)[C@@H](C)O) [Isovaleric Acid-[Lys(Ahx_Palm)]-T-H-[Dpa]-P-A-I-[(D)Lys]-[bhPhe]-NH2; 1],598
19,Isovaleryl-ETH[Dip]PLIK([Ahx-Palmitoyl])L-NH2 (SMILES CCCCCCCCCCCCCCCC(=O)NCCCCCC(=O)NCCCC[C@H](NC(=O)[C@@H](NC(=O)[C@H](CC(C)C)NC(=O)[C@@H]1CCCN1C(=O)[C@@H](NC(=O)[C@H](Cc1c[nH]cn1)NC(=O)[C@@H](NC(=O)[C@H](CCC(=O)O)NC(=O)CC(C)C)[C@@H](C)O)C(c1ccccc1)c1ccccc1)[C@@H](C)CC)C(=O)N[C@@H](CC(C)C)C(N)=O) [Isovaleric Acid-E-T-H-[Dpa]-P-L-I-[Lys(Ahx_Palm)]-L-NH2],37.4
20,Isovaleryl-LTH[Dip]PK([Ahx-Palmitoyl])[N_Ethyl_Phe] [Isovaleric Acid-L-T-H-[Dpa]-P-[Lys(Ahx_Palm)]-N_Ethyl_Phe],18.3

# Biological target: T1, human ferroportin (SLC40A1) fused in …
# Test: cell-based or functional assay
# Remark: another data set of the same source
row,Binder,FPN EC50 [nM]
1,Isovaleryl-ETH[Dip]PA[N(isopentyl)Gly′]K([Ahx-Palmitoyl])[β3hF]-NH2 [Isovaleric Acid-E-T-H-[Dpa]-P-A-[N-(isopenty1)Gly]-[Lys(Ahx_Palm)]-[bhPhe]-NH2],13
2,Isovaleryl-ETH[Dip]P[N(Et)Gly]IK([Ahx-Palmitoyl])[β3hF]-NH2 [Isovaleric Acid-E-T-H-[Dpa]-P-[N-(Et)Gly]-I-[Lys(Ahx_Palm)]-[bhPhe]-NH2],65.9
3,Isovaleryl-ETH[N‑(CH2CH2C(Ph)2H)Gly]PAIK([Ahx-Palmitoyl])[β3hF]-NH2 [Isovaleric Acid-E-T-H-[N-(CH2CH2C(Ph)2H)Gly]-P-A-I-[Lys(Ahx_Palm)]-[bhPhe]-NH2],> 3000
4,Isovaleryl-ETH[Dip]PAIK([PEG4-Palmitoyl])[β3hF]-NH2 (SMILES CCCCCCCCCCCCCCCC(=O)NCCOCCOCCOCCOCCC(=O)NCCCC[C@H](NC(=O)[C@@H](NC(=O)[C@H](C)NC(=O)[C@@H]1CCCN1C(=O)[C@@H](NC(=O)[C@H](Cc1c[nH]cn1)NC(=O)[C@@H](NC(=O)[C@H](CCC(=O)O)NC(=O)CC(C)C)[C@@H](C)O)C(c1ccccc1)c1ccccc1)[C@@H](C)CC)C(=O)N[C@H](CC(N)=O)Cc1ccccc1) [Isovaleric Acid-E-T-H-[Dpa]-P-A-I-[Lys(2PEG4_Palm)]-[bhPhe]-NH2],32.7
5,Isovaleryl-ETH[Dip]PAIK([Ahx-Palmitoyl])[N‑(CH2CH2Ph)Gly]-NH2 [Isovaleric Acid-E-T-H-[Dpa]-P-A-I-[Lys(Ahx_Palm)]-[N-(CH2CH2Ph)Gly]-NH2],31.9
